The values below come from article PMC4160250 (2014).

B1: USP5_UBA1 (first UBA domain of USP5, residues 631-692) (domain or fragment)
chain: MLDESVIIQLVEMGFPMDACRKAVYYTGNSGAEAAMNWVMSHMDDPDFANPLILPGSSGPGS

Holding throughout (assay): NMR
In one test the target is T1, UbP_C F195A (human, UniProt Q8WUN7 129-234, F195A).
T1 sequence: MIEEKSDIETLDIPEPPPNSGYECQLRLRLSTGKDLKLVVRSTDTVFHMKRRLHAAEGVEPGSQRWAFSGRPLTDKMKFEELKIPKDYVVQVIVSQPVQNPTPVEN

The target of the next test is T2, UbP_C Q219A/I221A (human, UniProt Q8WUN7 129-234, Q219A | I221A).
T2 sequence: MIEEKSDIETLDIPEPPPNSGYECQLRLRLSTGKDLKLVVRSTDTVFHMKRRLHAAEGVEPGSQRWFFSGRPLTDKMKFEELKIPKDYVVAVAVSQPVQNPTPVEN

Test [1] concerns the target B1.

As to B1, the Kd (as a rule, the concentration at which binding is half-saturated) in the test with UbP_C F195A was > 3000 µM; in the test with UbP_C Q219A/I221A it was 770 µM.

B2: UbP_C (C-terminal part of DC-UbP, residues 129-234), His-tagged (domain or fragment)
chain: MIEEKSDIETLDIPEPPPNSGYECQLRLRLSTGKDLKLVVRSTDTVFHMKRRLHAAEGVEPGSQRWFFSGRPLTDKMKFEELKIPKDYVVQVIVSQPVQNPTPVEN
In test [1], B2 had a Kd of 800 µM.
